{
  "source": "patent US20240389562",
  "experiment_in_all_cases": "cell_activity",
  "key": {"[1]": {"test_system": "XTN TALEN 1 right monomer", "conditions": "Cel-1 assay, value for the pair"}, "[2]": {"test_system": "XTN TALEN 3 right monomer", "conditions": "Cel-1 assay, value for the pair"}, "XTN TALEN 1 left monomer": {"test_system": "XTN TALEN 1 left monomer", "conditions": "Cel-1 assay, value for the pair"}, "XTN TALEN 3 left monomer": {"test_system": "XTN TALEN 3 left monomer", "conditions": "Cel-1 assay, value for the pair"}, "XTN TALEN 2 left monomer": {"test_system": "XTN TALEN 2 left monomer", "conditions": "Cel-1 assay, value for the pair; most active"}, "[3]": {"test_system": "XTN TALEN 2 right monomer", "conditions": "Cel-1 assay, value for the pair; most active"}},
  "data": [
    {"sequence": "AGTGCAGGGAGCCACA (double strand) [TALEN 1 right half-site]", "values": [
      {"measurement": "activity", "setting": "[1]", "value": 5, "unit": "%"}
    ]},
    {"sequence": "GTCATTGAGCAAATGCA (double strand) [TALEN 3 right half-site]", "values": [
      {"measurement": "activity", "setting": "[2]", "value": 3, "unit": "%"}
    ]},
    {"sequence": "TATGCGGACCTTTATCTA (double strand) [TALEN 1 left half-site]", "values": [
      {"measurement": "activity", "setting": "XTN TALEN 1 left monomer", "value": 5, "unit": "%"}
    ]},
    {"sequence": "TCTGCCAACCTCACAT (double strand) [TALEN 3 left half-site]", "values": [
      {"measurement": "activity", "setting": "XTN TALEN 3 left monomer", "value": 3, "unit": "%"}
    ]},
    {"sequence": "TGCAGTATGCGGACCTT (double strand) [TALEN 2 left half-site]", "values": [
      {"measurement": "activity", "setting": "XTN TALEN 2 left monomer", "value": 9, "unit": "%"}
    ]},
    {"sequence": "TTCCTAAGTGCAGGGA (double strand) [TALEN 2 right half-site]", "values": [
      {"measurement": "activity", "setting": "[3]", "value": 9, "unit": "%"}
    ]}
  ]
}
